This note sets out measurements from patent US20080044360A1.

Bridge positions count the residues as written; N and C are the ends. Square brackets hold non-standard residues; d marks the D form. Primed or numbered codes have the meaning given here. Ends that are not written are not given here. * marks the point of attachment. GdDTPA‑thiourea = GdT is GdDTPA-thiourea (Gd-DTPA chelate attached through a thiourea); dBip = N[C@H](Cc1ccc(-c2ccccc2)cc1)C(=O)O; Orn = NCCC[C@H](N)C(=O)O; Gd^T″ = GdDTPA-thiourea; Cbz = O=C(OCc1ccccc1)*; Dap = NC[C@H](N)C(=O)O; GdT = GdDTPA-thiourea

For assay [1], the target named is rat collagen, acid soluble, type I, rat tail (Upstate 08-115) (rat) (UniProt P02454). The experiment in a line: dried collagen assay.
Assay [2] addresses human collagen type I, acid soluble, extracted from placenta (Sigma C7774) (human) (UniProt P02452). Description: dried collagen assay.

Chain of rat collagen, acid soluble, type I, rat tail (Upstate 08-115) (rat) (P02454 152-1207, chain 1 of 2): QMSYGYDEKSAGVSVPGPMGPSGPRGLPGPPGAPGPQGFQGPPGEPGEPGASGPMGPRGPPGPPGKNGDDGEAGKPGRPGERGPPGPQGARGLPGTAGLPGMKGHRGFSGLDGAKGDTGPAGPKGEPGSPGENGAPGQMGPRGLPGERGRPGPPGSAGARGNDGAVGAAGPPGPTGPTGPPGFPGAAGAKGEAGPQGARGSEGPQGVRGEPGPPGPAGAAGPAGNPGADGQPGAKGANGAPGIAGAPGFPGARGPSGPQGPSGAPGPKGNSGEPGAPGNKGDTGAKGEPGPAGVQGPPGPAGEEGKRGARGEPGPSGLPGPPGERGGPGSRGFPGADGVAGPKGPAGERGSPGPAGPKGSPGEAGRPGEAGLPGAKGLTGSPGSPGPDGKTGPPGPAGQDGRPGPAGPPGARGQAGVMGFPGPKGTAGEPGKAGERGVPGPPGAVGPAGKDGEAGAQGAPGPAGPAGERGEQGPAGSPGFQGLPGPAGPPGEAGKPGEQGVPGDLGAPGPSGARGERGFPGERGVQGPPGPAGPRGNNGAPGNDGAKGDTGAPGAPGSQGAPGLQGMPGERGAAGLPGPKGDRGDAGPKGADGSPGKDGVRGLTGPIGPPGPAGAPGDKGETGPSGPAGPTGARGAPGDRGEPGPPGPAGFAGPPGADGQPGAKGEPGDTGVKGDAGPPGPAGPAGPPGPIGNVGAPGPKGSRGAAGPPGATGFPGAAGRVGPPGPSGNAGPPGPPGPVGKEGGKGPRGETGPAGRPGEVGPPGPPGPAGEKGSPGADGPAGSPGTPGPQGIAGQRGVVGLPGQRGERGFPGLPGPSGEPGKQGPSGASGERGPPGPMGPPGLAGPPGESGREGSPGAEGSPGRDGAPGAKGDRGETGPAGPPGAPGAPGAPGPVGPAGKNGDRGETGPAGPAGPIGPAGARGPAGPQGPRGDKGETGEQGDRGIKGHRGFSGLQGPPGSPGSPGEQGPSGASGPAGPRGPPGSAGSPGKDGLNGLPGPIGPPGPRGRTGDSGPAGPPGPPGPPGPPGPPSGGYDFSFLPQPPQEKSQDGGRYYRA
Chain of rat collagen, acid soluble, type I, rat tail (Upstate 08-115) (rat) (P02466 86-1125, chain 2 of 2, further chain): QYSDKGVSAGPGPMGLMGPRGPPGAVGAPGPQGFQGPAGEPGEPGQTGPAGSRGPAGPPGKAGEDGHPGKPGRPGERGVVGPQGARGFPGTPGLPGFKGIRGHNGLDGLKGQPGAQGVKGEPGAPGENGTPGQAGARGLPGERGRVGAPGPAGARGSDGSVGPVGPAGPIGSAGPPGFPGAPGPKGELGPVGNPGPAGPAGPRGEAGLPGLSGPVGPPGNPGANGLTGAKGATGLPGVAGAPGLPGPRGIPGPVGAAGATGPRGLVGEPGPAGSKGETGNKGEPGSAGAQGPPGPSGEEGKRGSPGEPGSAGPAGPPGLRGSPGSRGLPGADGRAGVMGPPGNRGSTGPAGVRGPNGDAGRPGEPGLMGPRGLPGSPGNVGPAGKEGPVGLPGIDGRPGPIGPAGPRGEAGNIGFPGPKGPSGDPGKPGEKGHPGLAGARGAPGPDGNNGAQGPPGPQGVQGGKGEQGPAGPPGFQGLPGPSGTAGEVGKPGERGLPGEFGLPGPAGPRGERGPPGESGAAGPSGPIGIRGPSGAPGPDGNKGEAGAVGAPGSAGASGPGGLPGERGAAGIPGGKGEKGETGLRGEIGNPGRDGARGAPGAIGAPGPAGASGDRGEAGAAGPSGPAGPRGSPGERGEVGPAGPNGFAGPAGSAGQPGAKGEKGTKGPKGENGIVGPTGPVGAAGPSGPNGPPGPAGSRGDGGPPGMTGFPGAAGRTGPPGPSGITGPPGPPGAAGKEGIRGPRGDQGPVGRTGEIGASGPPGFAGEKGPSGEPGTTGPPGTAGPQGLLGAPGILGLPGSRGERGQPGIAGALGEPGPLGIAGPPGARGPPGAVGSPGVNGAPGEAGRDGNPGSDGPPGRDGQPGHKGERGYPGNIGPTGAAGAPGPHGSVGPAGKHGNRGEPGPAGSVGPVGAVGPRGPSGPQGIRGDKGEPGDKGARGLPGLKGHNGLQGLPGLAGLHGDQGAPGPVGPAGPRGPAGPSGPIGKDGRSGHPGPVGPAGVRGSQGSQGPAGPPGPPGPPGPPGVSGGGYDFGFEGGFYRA
Chain of human collagen type I, acid soluble, extracted from placenta (Sigma C7774) (human) (P02452 162-1218 limits assumed, chain 1 of 2): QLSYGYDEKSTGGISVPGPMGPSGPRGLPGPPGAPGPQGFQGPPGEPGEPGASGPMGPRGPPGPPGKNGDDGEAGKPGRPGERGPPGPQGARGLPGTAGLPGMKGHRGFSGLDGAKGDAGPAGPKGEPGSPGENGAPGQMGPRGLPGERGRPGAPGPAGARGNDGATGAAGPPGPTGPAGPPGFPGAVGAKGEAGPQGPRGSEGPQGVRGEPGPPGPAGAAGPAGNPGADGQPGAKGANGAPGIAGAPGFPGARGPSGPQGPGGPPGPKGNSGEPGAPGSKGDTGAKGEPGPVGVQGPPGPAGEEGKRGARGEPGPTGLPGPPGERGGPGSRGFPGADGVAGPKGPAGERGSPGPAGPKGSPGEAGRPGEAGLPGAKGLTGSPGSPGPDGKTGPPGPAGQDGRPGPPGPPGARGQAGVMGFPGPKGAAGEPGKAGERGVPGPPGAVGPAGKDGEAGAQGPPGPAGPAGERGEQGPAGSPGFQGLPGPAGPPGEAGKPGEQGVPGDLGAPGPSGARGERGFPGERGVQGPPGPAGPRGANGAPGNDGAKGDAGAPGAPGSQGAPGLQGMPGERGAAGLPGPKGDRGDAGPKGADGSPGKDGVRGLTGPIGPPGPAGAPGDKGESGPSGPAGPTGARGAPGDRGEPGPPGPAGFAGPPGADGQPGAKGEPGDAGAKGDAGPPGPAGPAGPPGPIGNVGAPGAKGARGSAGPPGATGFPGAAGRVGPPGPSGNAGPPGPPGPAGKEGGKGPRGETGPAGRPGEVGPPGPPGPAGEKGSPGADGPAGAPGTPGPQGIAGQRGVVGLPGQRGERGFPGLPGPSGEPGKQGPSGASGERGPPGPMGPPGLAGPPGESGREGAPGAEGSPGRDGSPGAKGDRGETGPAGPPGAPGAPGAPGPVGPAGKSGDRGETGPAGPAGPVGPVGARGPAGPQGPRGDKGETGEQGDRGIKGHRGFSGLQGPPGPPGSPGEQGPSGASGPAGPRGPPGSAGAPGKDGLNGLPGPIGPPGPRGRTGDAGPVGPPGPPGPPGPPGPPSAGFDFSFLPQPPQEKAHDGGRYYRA
Chain of human collagen type I, acid soluble, extracted from placenta (Sigma C7774) (human) (P08123 80-1119 limits assumed, chain 2 of 2, further chain): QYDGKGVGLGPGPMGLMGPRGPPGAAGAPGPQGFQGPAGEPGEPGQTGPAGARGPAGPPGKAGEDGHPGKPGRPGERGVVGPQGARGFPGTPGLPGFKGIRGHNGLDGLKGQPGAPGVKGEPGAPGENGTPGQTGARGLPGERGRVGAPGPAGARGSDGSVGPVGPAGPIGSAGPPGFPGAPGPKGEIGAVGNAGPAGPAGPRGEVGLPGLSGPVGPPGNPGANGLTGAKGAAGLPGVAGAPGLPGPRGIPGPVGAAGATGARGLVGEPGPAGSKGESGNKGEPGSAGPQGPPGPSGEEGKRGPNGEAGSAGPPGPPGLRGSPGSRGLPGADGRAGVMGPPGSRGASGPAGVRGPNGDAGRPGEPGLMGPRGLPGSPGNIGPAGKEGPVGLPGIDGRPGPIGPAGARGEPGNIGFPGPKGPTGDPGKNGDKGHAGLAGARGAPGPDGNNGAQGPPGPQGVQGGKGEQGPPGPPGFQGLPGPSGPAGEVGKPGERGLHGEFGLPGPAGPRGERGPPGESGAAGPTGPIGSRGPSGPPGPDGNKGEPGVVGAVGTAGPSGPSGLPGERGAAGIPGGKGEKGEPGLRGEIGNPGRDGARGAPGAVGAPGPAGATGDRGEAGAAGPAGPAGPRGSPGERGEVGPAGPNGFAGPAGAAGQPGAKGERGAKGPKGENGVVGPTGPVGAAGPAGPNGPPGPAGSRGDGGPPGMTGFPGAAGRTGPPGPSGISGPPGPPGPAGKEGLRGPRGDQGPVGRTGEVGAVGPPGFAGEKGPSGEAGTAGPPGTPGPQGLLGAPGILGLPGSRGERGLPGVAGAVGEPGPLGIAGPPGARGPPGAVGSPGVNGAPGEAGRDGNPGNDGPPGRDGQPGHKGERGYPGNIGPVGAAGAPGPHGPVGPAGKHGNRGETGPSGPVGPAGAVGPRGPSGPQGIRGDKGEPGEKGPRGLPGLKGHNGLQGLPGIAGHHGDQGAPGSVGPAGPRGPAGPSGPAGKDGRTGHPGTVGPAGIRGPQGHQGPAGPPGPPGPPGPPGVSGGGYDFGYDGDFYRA

{Gd^T″}-GQWHCTTLFPHH[dY]CLYG (disulfide 5-14 (inferred); not fully specified (C-terminus)) [Compound ID 907]: the % bound in assay [1] turned out to be 1%; in assay [2], 6%.
In the case of {Gd^T″}-GQWHCTTRFPHH[dF]CLYG (disulfide 5-14 (inferred); not fully specified (C-terminus)) [Compound ID 901], the % bound in assay [1] and in assay [2] was 2% each time.

B1: Compound ID 903 (peptide)
peptide: GdT-GQWHCTTRFPHH[dBip]CLYG
modifications: disulfide 5-14 (inferred); not fully specified (C-terminus); also: gadolinium complex (GdDTPA)
For B1, the % bound in assay [1] worked out at 5%; in assay [2], 3%.
With Cbz-GQWHCT[Orn](GdDTPA‑thiourea)RFPHHYCLYG (disulfide 5-14 (inferred); also: gadolinium complex (GdDTPA)) [Compound ID 941], the figures for the % bound in assay [1] and in assay [2] were 5% and 8%, respectively.
On to Cbz-GQWHCT[Dap](GdDTPA‑thiourea)RFPHHYCLYG (disulfide 5-14 (inferred); also: gadolinium complex (GdDTPA)) [Compound ID 939], for which the % bound in assay [1] was 5%; in assay [2] it was 4%.
